Key:
[1] = target: BKV VP1 (BK virus (BKV), AS strain) (UniProt P14996); test: direct ELISA
[2] = target: JCV VP1 VLP (JC virus (JCV), Mad-1 strain) (UniProt P03089); test: direct ELISA
[3] = target: BKV VP1 VLP (BK virus (BKV), AS strain) (UniProt P14996); test: direct ELISA
[4] = target: BKV VP1 (BK virus (BKV), AS strain) (UniProt P14996); test: direct ELISA, plate coated with antigen at 5 µg/ml in carbonate buffer; EC50 by non-linear regression (GraphPad Prism)
[5] = target: BKV VP1 VLP (BK virus (BKV), AS strain) (UniProt P14996); test: direct ELISA, plate coated with antigen at 5 µg/ml in reassociation buffer (VLP); EC50 by non-linear regression (GraphPad Prism)

Sequence of BKV VP1 (BK virus (BKV), AS strain) (P14996 whole entry): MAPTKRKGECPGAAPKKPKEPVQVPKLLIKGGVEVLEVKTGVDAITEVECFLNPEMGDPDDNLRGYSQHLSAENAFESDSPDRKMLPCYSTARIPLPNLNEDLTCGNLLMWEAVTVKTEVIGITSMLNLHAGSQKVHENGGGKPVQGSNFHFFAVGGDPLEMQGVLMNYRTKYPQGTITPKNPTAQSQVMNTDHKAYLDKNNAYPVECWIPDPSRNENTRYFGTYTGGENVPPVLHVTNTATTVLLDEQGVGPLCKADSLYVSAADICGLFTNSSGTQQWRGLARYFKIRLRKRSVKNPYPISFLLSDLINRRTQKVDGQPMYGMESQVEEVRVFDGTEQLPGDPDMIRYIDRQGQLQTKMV
Sequence of BKV VP1 VLP (BK virus (BKV), AS strain) (P14996 whole entry): as above
Sequence of JCV VP1 VLP (JC virus (JCV), Mad-1 strain) (P03089 whole entry): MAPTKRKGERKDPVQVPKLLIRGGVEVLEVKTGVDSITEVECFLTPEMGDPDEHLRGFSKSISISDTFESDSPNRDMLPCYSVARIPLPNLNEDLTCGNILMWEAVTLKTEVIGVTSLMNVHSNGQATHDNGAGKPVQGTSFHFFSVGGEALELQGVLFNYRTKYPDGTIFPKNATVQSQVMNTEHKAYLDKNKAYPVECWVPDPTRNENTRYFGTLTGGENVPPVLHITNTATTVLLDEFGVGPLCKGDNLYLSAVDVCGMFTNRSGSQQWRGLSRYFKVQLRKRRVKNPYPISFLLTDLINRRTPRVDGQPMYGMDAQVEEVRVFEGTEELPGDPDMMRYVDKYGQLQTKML

Binder	EC50 [1] [nM]	EC50 [2] [nM]	EC50 [3] [nM]	EC50 [4] [nM]	EC50 [5] [nM]
NI-307.1E1 (antibody, V domains shown) VH: EVQLVESGGGLVKPGGSLRLSCAASGFIFSDAWMNWVRQAPGKGLEWVGHIKSRPAGGTTEYAAPVKGRFTISRDDSTDTLYLQMNNLKAEDTAVYYCSTGHYGVYGLGTLVTVSS VL: DIQMTQSPSTLSASVGDRVTITCRASQSIRDYLAWYQQKPGKAPKLLIYDGSILEGGVPSRFSGSVSGTDFTLTISSLQSDDFATYYCQQYTSYSSWTFGQGTKVEIK	6.05	281	11	–	–
NI-307.18E12 (antibody, V domains shown) VH: QVQLQQWGAGLLKPSETLSLTCAVYGDSFSGFFWAWIRQTPGTGLEWIGEIQHGGSPTYNPSFESRLTISTDASKSQVSLKMTSVTVTDTAIYYCARCIRGKYGSGSLQLWSQGTLVTVSS VL: DIQLTQSPSFLSASVGDRVTITCRASQDINYHLAWYRQKPGKAPDLLIHSAHTLHIGVSSRFSGSGSGTEFTLTIHTLQPEDFATYYCHQPKTFPPTFGGGTKVDIK	–	–	–	61.5	111
NI-307.19F10 (antibody, V domains shown) VH: EVQLVESGGGLVQPGGSVSLSCAASGFTFPVYWMHWVRQAPEKGLMWVSRISPDGTIVDYAGSVKGRFTVSRDNAKNILYLQIQRLTAEDTAVYFCTKDFDVASGFWGQGTLVTVSS VL: QSALTQPPSASGSPGQSVTISCTGSKSDVGTCHFVSWYQQHPGKVPKLVIYEGNKRPSGVPDRFSASKSGNTASLTISGLQPGDEADYYCSTCAGPNNYVFGTGTKVTVL	2.41	–	1.1	–	–
NI-307.26E10 (antibody, V domains shown) VH: EVQLVESGGGLVLPGGSLRLSCAVSGFTVRNEYMRWARQAPGRGLEWVSVIYRDGQTHHADTVKGRFDVSKDTSKNTMYLQMHNLRVDDTAIYYCARGHYGPWGQGTLVTVSS VL: DIQMTQSPSTLPASVGDRVTITCRASQSINNWLAWYQQKPGKAPNLLIYDASNLETGVPSRFSGSGSGTEFTLTISSLQPDDFATYYCQQYNSHSHTWTFGQGTKVEIK	1.35	–	0.74	–	–
NI-307.25G10 (antibody, V domains shown) VH: EVQLVESGGGLVQPGGSLRLSCVASGIIFKDYDFHWVRQVKEKGLEWVSAIGTAGDPYYAASVKGRFTVSRENGKNSVYLRMNNVGAGDTALYYCTSGNYFDRGSFRPSAFDMWGQGTMVTVSS VL: EIVLTQSPGTLSLSPGERATLSCWASQSVSSNYLAWYQHKPGQAPRLLIFRASRRATDIPERFSAGGSGTDFTLTISRLEAEDSAVYYCQEYGSAPPASITFGQGTRLEIK	0.514	–	0.172	–	–
NI-307.5H3 (antibody, V domains shown) VH: QVQLQESGPGLLKPLGTLSLICDVSGDSISSSNWWSWVRQSPRKGLEWIGEIYHSGRTNYNPSLTNRVTISVDKSKNQFSLNLNSVTAADTGVYYCARWDYYYNNDYYIRGFDIWGQGTMVTVSS VL: EIVLTQSPGILSLSPGERATLSCRASQSVDSNYLAWYQQKPGQAPRLLIYSTSTRAAGVPDRFSGSGSGTDFALTISGLEPEDFAVYYCQQWGGSPPITFGQGTRLEIK	0.362	–	0.288	–	–
NI-307.78C3 (antibody, V domains shown) VH: QVQLQESGPGLVKPSGTLSLTCTVSGGSISGRIWWSWVRQPPGKGLEWIGEIYHSGSTNYSPSLRGRVTISVDTSKQHFSLKMTSVTAADTAMYYCVRGELALGFDSWGQGTLVTVSS VL: QSALTQPPSASGSPGQSVTISCTGTSSDVGGYNSVSWYQQHPRRAPKLMIYEVSKRPSGVPDRFSGSKSGNTASLTVSGLQADDEAHYYCSSYAGSNNLVFGGGTMLTVL	1.96	–	0.939	–	–
NI-307.24F3 (antibody, V domains shown) VH: QVQLQESGGGVVQPGRSLRLSCAASGFSFNRYGMHWVRQAPGKGLEWLAVISNDGVNTHYADSVKGRFTISRDNSKSTLYLQASSLRVEDTAVYYCAGYYYGSGTSLFFYWGQGTLVTVSS VL: EIVLTQSPDSLAVSLGERATINCKSSQTVLYSSNNQNYLAWYQQKPGQPPKLLLYWASTRESGVPDRFSGSGSGTDFTLTISSLQPEDVAVYYCQQYYTAPYTFGQGTKVEIK	1.04	–	28.8	–	–
NI-307.24C6 (antibody, V domains shown) VH: QLQLQESGPGLVKPSGTLSLICVVSGSSIRSNIWWWNWVRQSPGKGLEWIGEIYHSGSTNYSPSLKSRVTMSVDNSKNQFSLKMSSVTAADTAVYFCAINTRTSISGVLYDTFDVWGQGTMVTVSS VL: EIVLTQSPATLSLSSGERATLSCRASQSVSGYLAWYQQKPGQAPRLLIYDGSNRATGIPARFSGSGSGTDFTLTISSLEPEDFAVYYCQHRSNWPMYTFGQGTKLEIK	0.816	–	0.396	–	–
NI-307.43A11 (antibody, V domains shown) VH: QVQLQESGPGLVKPSGTLSLTCAVTGGSISSSNWWSWVRQSPGKGLEWIGEIHHDGNLNYNPLLKSRVSMSLDRSKNQFSLKLTSVTAADTAVYYCARWDFFFDSSYYIRGFDLWGQGTMVTVSS VL: ETTLTQSPGTLSLSPGERVTLSCRASQSVDRNYLAWYQQKPGQSPRLLIYSASRRATGIPDRFSGSGSGTDFTLTISRLEPEDFVVYYCQQYGGSPPITFGQGTRLEIK	9.7	–	10	–	–
NI-307.43E8 (antibody, V domains shown) VH: EVQLVESGGDVVQPGRSLRLSCAASGFAFSIYAMNWVRQAPGKGLEWVALISTSGTEHYADSVKGRFTISRDNSKNTLFLQINSLRVEDTAVYYCARDLDSTGYYENNYWGQGTLVTVSS VL: DVVMTQSPLSSPVSLGQPASISCRSSHSLVHSNGDTYLSWLQQRPGQPPRLLIYKISNRFSGVPDRFSGSGAGTDFTLKISRVEAEDVGVYFCMQATSFPRTFGQGTKVEIK	–	–	–	0.34	0.38
NI-307.6A2 (antibody, V domains shown) VH: QVQLQESGPGLVKPSETLSLTCAVSGGSVSSSYWYSWVRQLPGKGLEWIGEIFHTGDTNYNPSLESRVTISIDTSKNQLSLDVTSATAADTAVYYCARDYCTDSGCDSDALDVWGHGTMVTVSS VL: QSALTQPASVSGSPGQSITISCTGTTKDVGNYNLVSWYQQHPGKAPRLVIYEVSERPSGVSNRFSGSKSGNTASLTISGLQAEDEADYHCCSYAGSGTSVFGGGTKVTVL	1.79	–	1.17	–	–
NI-307.57D5 (antibody, V domains shown) VH: EVQLVESGGGLAQPGGSLRLSCAGSGFTLSDFAMSWVRRAPGKGLEWVSSLTPSGRNSFYSDSVKGRFTISRDNWKNTLYLEMNLLRPEDTAVYYCARPGAPKNSDSKYSYVRVDFQHWGQGTLVTVSS VL: NFMLTQPHSVSESPGRTVTISCTRSSGSIANNFVQWYQHRPGSAPTTLIYEDDQRPSGVPDRFSGSVDSFSNSASLTISGLKTEDEADYFCQSYDNHNWVFGGGTTLTVL	37.5	–	104	–	–
NI-307.3G4 (antibody, V domains shown) VH: QVQLVQSGAELKKPGAAVKVSCQASGYNFLSYGINWVRQIPGQGLQWLGWISTYDGTMNYDQKPDNRVTVTTDTSSSTVYLELRGLRSDDTGVYYCVRDRCAGAGCSHSLGYWGQGTLVTVSS VL: DIQMTQSPSALSASVGDRVTISCRASQNINTQLNWYQEKPGKAPELLIYGAFNLQSGAPSTFSGSGSGTDFTLTITSLQPEDFASYYCQQGFHAPYTFGRGTKVDIK	27.4	–	16.4	–	–

Reference: patent US20160052996A1
